The record followed here is patent WO2016071355A1 (dated 2016).

Experiment [1] concerns the target T1, soluble extracellular region of human CD38 fused to a 6-His-tag (human, UniProt P28907 43-300).
T1 construct: also called human CD38 extracellular domain with a poly-histidine tag; human CD38 antigen
As to the kind of experiment: SPR, antibody captured on protein G, CD38-His injected. Background: SPR reads the build-up and loss of mass on a sensor chip optically.

Experiment [2] concerns the target human CD38 on cells (human, UniProt P28907 1-300). Briefly: cell-based or functional assay.
Experiment [3] addresses T2, Protein A (Staphylococcus aureus, UniProt P38507 212-269).
T2 construct: The resin ligand is a commercial recombinant Protein A derivative
As to the kind of experiment: protein A affinity chromatography.

In experiment [4] the target is Protein G (UniProt P19909 303-497). Briefly: protein G affinity chromatography, SDS-PAGE.
Experiment [5] deals with T1, soluble extracellular region of human …. As to the kind of experiment: SPR.
Experiment [6] concerns the target T3, soluble extracellular region of cynomolgus monkey CD38 antigen fused to a 6-His-tag (cynomolgus monkey, UniProt Q5VAN0 45-301).
T3 construct: also called cynomolgus CD38
As to the kind of experiment: SPR.

B1: BEAT CD38-HB7bestfit/CD3 antibody (bispecific antibody, human IgG1, kappa, L234A L235A)
heavy: QVQLQESGPGLVKPSETLSLTCTVSGFSLISYGVHWVRQPPGKGLEWLGVIWRGGSTDYNAAFMSRLTISKDNSKNQVSLKLSSVTAADTAVYFCAKTLITTGYAMDYWGQGTLVTVSSASTKGPSVFPLAPSSKSTSGGTAALGCLVKDYFPEPVTVSWNSGALTSGVHTFPAVLQSSGLYSLSSVVTVPSSSLGTQTYICNVNHKPSNTKVDKKVEPKSCDKTHTCPPCPAPEAAGGPSVFLFPPKPKDTLMISRTPEVTCVVVDVSHEDPEVKFNWYVDGVEVHNAKTKPREEQYNSTYRVVSVLTVLHQDWLNGKEYKCKVSNKALPAPIEKTISKAKGQPREPAVYTLPPSRDELTKNQVKLVCLVTGFYPSDIAVEWESNGQPENNYYTTPPVLDSDGSFSLVSWLNVDKSRWQQGNVFSCSVMHEALHNHYTQKSLSLSPGK
light: DIQLTQSPSSLSASVGDRVTITCRASEDIYNRLAWYQQKPGKAPKLLISGATSLETGVPSRFSGSGSGKDYTLTISSLQPEDFATYYCQQYWSTPTFGQGTKLEIKRTVAAPSVFIFPPSDEQLKSGTASVVCLLNNFYPREAKVQWKVDNALQSGNSQESVTEQDSKDSTYSLSSTLTLSKADYEKHKVYACEVTHQGLSSPVTKSFNRGEC
scFv: EVQLVESGGGLVQPGGSLRLSCAASGYTFTRYTMHWVRQAPGKGLEWIGYINPSRGYTYYADSVKGRFTLSTDKSKNTAYLQMSSLRAEDTAVYYCARYYDDHYCLDYWGQGTLVTVSSGGGGSGGGGSGGGGSGGGASDIQLTQSPSSLSASVGDRVTITCRASSSVSYVAWYQQKPGKAPKRWIYDTSKLYSGVPSRFSGSGSGTDYTLTISSLQPEDFATYYCQQWSSNPPTFGQGTKVEIKGGGGTDKTHTCPPCPAPEAAGGPSVFLFPPKPKDTLMISRTPEVTCVVVDVSHEDPEVQFKWYVDGVEVHNAKTKPREEQYNSTFRVVSVLTVLHQDWLNGKEYKCKVSNKALPAPIEKTISKTKGQPREPEVATFPPSREEMTKNQVTLVCLVTGFYPSDIAVEWESSGQPENNYNTDPPLLESDGSFALSSRLRVDKSRWQQGNIFSCSVMHEALHNRFTQKSLSLSPGK
In the case of B1, the dissociation constant Kd (as a rule, the free concentration of one partner at which half of the binding sites on the other are occupied at equilibrium, for simple one-to-one binding) in experiment [1] was 3.2 nM. In experiment [2], the “EC50, T cell redirected killing of RPMI 8226 myeloma cells (RDL-FACS, purified T cells, 48h)” value was 0.0022 nM.

B2: BEAT CD38-HB7bestfit/CD3(SP34) antibody (bispecific antibody)
heavy: QVQLQESGPGLVKPSETLSLTCTVSGFSLISYGVHWVRQPPGKGLEWLGVIWRGGSTDYNAAFMSRLTISKDNSKNQVSLKLSSVTAADTAVYFCAKTLITTGYAMDYWGQGTLVTVSSASTKGPSVFPLAPSSKSTSGGTAALGCLVKDYFPEPVTVSWNSGALTSGVHTFPAVLQSSGLYSLSSVVTVPSSSLGTQTYICNVNHKPSNTKVDKKVEPKSCDKTHTCPPCPAPEAAGGPSVFLFPPKPKDTLMISRTPEVTCVVVDVSHEDPEVQFKWYVDGVEVHNAKTKPREEQYNSTFRVVSVLTVLHQDWLNGKEYKCKVSNKALPAPIEKTISKTKGQPREPAVYTLPPSREEMTKNQVKLVCLVTGFYPSDIAVEWESSGQPENNYYTTPPMLDSDGSFSLVSWLNVDKSRWQQGNIFSCSVMHEALHNRFTQKSLSLSPGK
light: DIQLTQSPSSLSASVGDRVTITCRASEDIYNRLAWYQQKPGKAPKLLISGATSLETGVPSRFSGSGSGKDYTLTISSLQPEDFATYYCQQYWSTPTFGQGTKLEIKRTVAAPSVFIFPPSDEQLKSGTASVVCLLNNFYPREAKVQWKVDNALQSGNSQESVTEQDSKDSTYSLSSTLTLSKADYEKHKVYACEVTHQGLSSPVTKSFNRGEC
scFv: not shown
Consider B2, for which the “EC50, T cell redirected killing of Daudi cells (RDL-FACS, PBMCs, 24h)” value in experiment [2] worked out at 0.0018 nM.

B3: humanized HB-7 best-fit antibody (antibody, human IgG1, kappa, V domains shown)
VH: QVQLQESGPGLVKPSETLSLTCTVSGFSLISYGVHWVRQPPGKGLEWLGVIWRGGSTDYNAAFMSRLTISKDNSKNQVSLKLSSVTAADTAVYFCAKTLITTGYAMDYWGQGTLVTVSS
VL: DIQLTQSPSSLSASVGDRVTITCRASEDIYNRLAWYQQKPGKAPKLLISGATSLETGVPSRFSGSGSGKDYTLTISSLQPEDFATYYCQQYWSTPTFGQGTKLEIKR
notes: Human IgG1 format
On to B3, for which, in experiment [1], the Kd stood at 3.6 nM.

B4: chimeric HB-7 antibody (antibody, human IgG1, kappa, V domains shown)
VH: KVQLQESGPSLVQPSQRLSITCTVSGFSLISYGVHWVRQSPGKGLEWLGVIWRGGSTDYNAAFMSRLSITKDNSKSQVFFKMNSLQADDTAIYFCAKTLITTGYAMDYWGQGTTVTVSS
VL: DIELTQSPSSFSVSLGDRVTITCKASEDIYNRLAWYQQKPGNAPRLLISGATSLETGVPSRFSGSGSGKDYTLSITSLQTEDVATYYCQQYWSTPTFGGGTKLEIKR
In experiment [1], B4 yielded a Kd of 2.5 nM.

B5: BEAT CD38-9G7Mouse/CD3 (bispecific antibody, human IgG1, kappa, L234A L235A)
heavy: not shown
light: DIVMTQSHKFMSTSVGDRVSISCKASQDVITSVAWFQQKPGQSPKLLIYSASYRYTGVPDRFTGSGSGTDFTFTISSVQAEDLAVYYCQQHYTIPLTFGAGTKLELKRTVAAPSVFIFPPSDEQLKSGTASVVCLLNNFYPREAKVQWKVDNALQSGNSQESVTEQDSKDSTYSLSSTLTLSKADYEKHKVYACEVTHQGLSSPVTKSFNRGEC
scFv: EVQLVESGGGLVQPGGSLRLSCAASGYTFTRYTMHWVRQAPGKGLEWIGYINPSRGYTYYADSVKGRFTLSTDKSKNTAYLQMSSLRAEDTAVYYCARYYDDHYCLDYWGQGTLVTVSSGGGGSGGGGSGGGGSDIQLTQSPSSLSASVGDRVTITCRASSSVSYVAWYQQKPGKAPKRWIYDTSKLYSGVPSRFSGSGSGTDYTLTISSLQPEDFATYYCQQWSSNPPTFGQGTKVEIKGGGGTDKTHTCPPCPAPEAAGGPSVFLFPPKPKDTLMISRTPEVTCVVVDVSHEDPEVQFKWYVDGVEVHNAKTKPREEQYNSTFRVVSVLTVLHQDWLNGKEYKCKVSNKALPAPIEKTISKTKGQPREPEVATFPPSREEMTKNQVTLVCLVTGFYPSDIAVEWESSGQPENNYNTDPPLLESDGSFALSSRLRVDKSRWQQGNIFSCSVMHEALHNRFTQKSLSLSPGK
B5: the “EC50, killing of Daudi cells (flow cytometry, PBMCs, 48h)” value in experiment [2] was determined as 0.0032 nM.

B6: BEAT CD38-OKT10Mouse/CD3 (bispecific antibody, human IgG1, kappa, L234A L235A)
heavy: QVELVESGGSLKLSCAASGFDFSRSWMNWVRQAPGKGLEWIGEINPDSSTINYTTSLKDKFIISRDNAKNTLYLQMTKVRSEDTALYYCARYGNWFPYWGQGTLVTVSSASTKGPSVFPLAPSSKSTSGGTAALGCLVKDYFPEPVTVSWNSGALTSGVHTFPAVLQSSGLYSLSSVVTVPSSSLGTQTYICNVNHKPSNTKVDKKVEPKSCDKTHTCPPCPAPEAAGGPSVFLFPPKPKDTLMISRTPEVTCVVVDVSHEDPEVKFNWYVDGVEVHNAKTKPREEQYNSTYRVVSVLTVLHQDWLNGKEYKCKVSNKALPAPIEKTISKAKGQPREPAVYTLPPSRDELTKNQVKLVCLVTGFYPSDIAVEWESNGQPENNYYTTPPVLDSDGSFSLVSWLNVDKSRWQQGNVFSCSVMHEALHNHYTQKSLSLSPGK
light: DILMTQSQKIMPTSVGDRVSVTCKASQNVDTNVAWYQQKPGQSPKALIYSASYRYSGVPDRFTGSGSGTDFTLTITNVQSEDLAEYFCQQYDSYPLTFGAGTKLDLKRTVAAPSVFIFPPSDEQLKSGTASVVCLLNNFYPREAKVQWKVDNALQSGNSQESVTEQDSKDSTYSLSSTLTLSKADYEKHKVYACEVTHQGLSSPVTKSFNRGE
scFv: EVQLVESGGGLVQPGGSLRLSCAASGYTFTRYTMHWVRQAPGKGLEWIGYINPSRGYTYYADSVKGRFTLSTDKSKNTAYLQMSSLRAEDTAVYYCARYYDDHYCLDYWGQGTLVTVSSGGGGSGGGGSGGGGSDIQLTQSPSSLSASVGDRVTITCRASSSVSYVAWYQQKPGKAPKRWIYDTSKLYSGVPSRFSGSGSGTDYTLTISSLQPEDFATYYCQQWSSNPPTFGQGTKVEIKGGGGTDKTHTCPPCPAPEAAGGPSVFLFPPKPKDTLMISRTPEVTCVVVDVSHEDPEVQFKWYVDGVEVHNAKTKPREEQYNSTFRVVSVLTVLHQDWLNGKEYKCKVSNKALPAPIEKTISKTKGQPREPEVATFPPSREEMTKNQVTLVCLVTGFYPSDIAVEWESSGQPENNYNTDPPLLESDGSFALSSRLRVDKSRWQQGNIFSCSVMHEALHNRFTQKSLSLSPGK
As to B6, the “EC50, killing of Daudi cells (flow cytometry, PBMCs, 48h)” value in experiment [2] stood at 0.126 nM.

B7: BTB homodimer construct lacking the VH3 based scFv (other)
chain: DKTHTCPPCPAPEAAGGPSVFLFPPKPKDTLMISRTPEVTCVVVDVSHEDPEVKFNWYVDGVEVHNAKTKPREEQYNSTYRVVSVLTVLHQDWLNGKEYKCKVSNKALPAPIEKTISKAKGQPREPEVATFPPSRDELTKNQVTLVCLVTGFYPSDIAVEWESNGQPENNYKTDPPLLESQGSFALSSRLRVDKSRWQQGNVFSCSVMHEALHNHYTQKSLSLSPGK
As for B7, the binding result in experiment [3] and in experiment [4] was “no binding” in each case.

B8: first humanized 9G7 antibody prototype (antibody, human IgG1, kappa, V domains shown)
VH: QVTLKESGPTLVKPTQTLTLTCTFSGLSLSTSGKGVGWIRQPPGKALEWLAHIWWDDDKRYNPALKSRLTITKDTSKNQVVLTMTNMDPVDTATYYCARIELGRSYVMDYWGQGTLVTVSS
VL: DIQMTQSPSSLSASVGDRVTITCQASQDVITSVAWFQQKPGKAPKLLIYSASYRYTGVPSRFSGSGSGTDFTFTISSLQPEDIATYYCQQHYTIPLTFGQGTKLEIKR
notes: Human IgG1 isotype; also called first antibody prototype; first humanized prototype
For the molecule B8, in experiment [5], the Kd amounted to 1 nM and the “fold lower binding than the mouse parental antibody” value was found to be 3 fold.

B9: humanized 9G7 best-framework antibody (antibody, human IgG1, kappa, V domains shown)
VH: EVQLVESGGGLVQPGGSLRLSCAFSGLSLSTSGKGVGWIRQAPGKGLEWLAHIWWDDDKRYNPALKSRLTISKDTSKNTVYLQMNSLRAEDTAVYYCARIELGRSYVMDYWGQGTLVTVSS
VL: DIQMTQSPSSLSASVGDRVTITCRASQDVITSVAWFQQKPGKAPKLLIYSASYRYTGVPSRFSGSGSGTDFTLTISSLQPEDFATYYCQQHYTIPLTFGQGTKVEIKR
notes: Human IgG1
Take B9: the Kd in experiment [1] worked out at 0.4 nM; in experiment [6], 1 nM.

B10: humanized 9G7 best-fit antibody (antibody, human IgG1, kappa, V domains shown)
VH: QVTLKESGPTLVKPTQTLTLTCTFSGLSLSTSGKGVGWIRQPPGKALEWLAHIWWDDDKRYNPALKSRLTITKDTSKNQVVLTMTNMDPVDTATYYCARIELGRSYVMDYWGQGTLVTVSS
VL: DIQMTQSPSSLSASVGDRVTITCQASQDVITSVAWYQQKPGKAPKLLIYSASYRYTGVPSRFSGSGSGTDFTFTISSLQPEDIATYYCQQHYTIPLTFGQGTKLEIKR
notes: Human IgG1; also called 9G7 best-fit F36Y humanized variant
On to B10, for which the Kd in experiment [1] stood at 0.5 nM; in experiment [6] it was 3.2 nM. Also, the “fold improvement of affinity over the first humanized prototype” value in experiment [5] is 2 fold.
